In patent US20050176118A1, “Esterases with lipase activity” (priority 2002, published 2005):

B1: EST23WT: wild-type Drosophila melanogaster EST23 α-carboxylesterase (SEQ ID NO:2) (protein)
chain: MNKNLGFVERLRGRLKTIEHKVQQYRQSTNETVVADTEYGQVRGIKRLSLYDVPYFSFEGIPYAQPPVGELRFKAPQRPIPWEGVRDCSQPKDKAVQVQFVFDKVEGSEDCLYLNVYTNNVKPDKARPVMVWIHGGGFIIGEANREWYGPDYFMKEDVVLVTIQYRLGALGFMSLKSPELNVPGNAGLKDQVLALKWIKNNCASFGGDPNCITVFGESAGGASTHYMMLTDQTQGLFHRGILQSGSAICPWAYNGDITHNPYRIAKLVGYKGEDNDKDVLEFLQNVKAKDLIRVEENVLTLEERMNKIMFRFGPSLEPFSTPECVISKPPKEMMKTAWSNSIPMFIGNTSYEGLLWVPEVKLMPQVLQQLDAGTPFIPKELLATEPSKEKLDSWSAQIRDVHRTGSESTPDNYMDLCSIYYFVFPALRVVHSRHAYAAGAPVYFYRYDFDSEELIFPYRIMRMGRGVKGVSHADDLSYQFSSLLARRLPKESREYRNIERTVGIWTQFAATGNPYSEKINGMDTLTIDPVRKSDEVIKCLNISDDLKFIDLPEWPKLKVWESLYDDNKDLLF
modifications: Drosophila melanogaster
B2: MpE4WT: wild-type Myzus persicae E4 α-carboxylesterase (SEQ ID NO:3) (protein, listed as Myzus persicae)
chain: MKNTCGILLNLFLFIGCFLTCSASNTPKVQVHSGEIAGGFEYTYNGRKIYSFLGIPYASPPVQNNRFKEPQPVQPWLGVWNATVPGSACLGIEFGSGSKIIGQEDCLFLNVYTPKLPQENSAGDLMNVIVHIHGGGYYFGEGILYGPHYLLDNNDFVYVSINYRLGVLGFASTGDGVLTGNNGLKDQVAALKWIQQNIVAFGGDPNSVTITGMSAGASSVHNHLISPMSKGLFNRAIIQSGSAFCHWSTAENVAQKTKYIANLMGCPTNNSVEIVECLRSRPAKAIAKSYLNFMPWRNFPFTPFGPTVEVAGYEKFLPDIPEKLVPHDIPVLISIAQDEGLIFSTFLGLENGFNELNNNWNEHLPHILDYNYTISNENLRFKTAQDIKEFYFGDKPISKETKSNLSKMISDRSFGYGTSKAAQHIAAKNTAPVYFYEFGYSGNYSYVAFFDPKSYSRGSSPTHGDETSYVLKMDGFYVYDNEEDRKMIKTMVNIWATFIKSGVPDTENSEIWLPVSKNLADPFRFTKITQQQTFEAREQSTTGIMNFGVAYH
B3: E3WT: wild-type Lucilia cuprina E3 α-carboxylesterase (SEQ ID NO:1), baculovirus expressed (protein, listed as Lucilia cuprina)
chain: MNFNVSLMEKLKWKIKCIENKFLNYRLTTNETVVAETEYGKVKGVKRLTVYDDSYYSFEGIPYAQPPVGELRFKAPQRPTPWDGVRDCCNHKDKSVQVDFITGKVCGSEDCLYLSVYTNNLNPETKRPVLVYIHGGGFIIGENHRDMYGPDYFIKKDVVLINIQYRLGALGFLSLNSEDLNVPGNAGLKDQVMALRWIKNNCANFGGNPDNITVFGESAGAASTHYMMLTEQTRGLFHRGILMSGNAICPWANTQCQHRAFTLAKLAGYKGEDNDKDVLEFLMKAKPQDLIKLEEKVLTLEERTNKVMFPFGPTVEPYQTADCVLPKHPREMVKTAWGNSIPTMMGNTSYEGLFFTSILKQMPMLVKELETCVNFVPSELADAERTAPETLEMGAKIKKAHVTGETPTADNFMDLCSHIYFWFPMHRLLQLRFNHTSGTPVYLYRFDFDSEDLINPYRIMRSGRGVKGVSHADELTYFFWNQLAKRMPKESREYKTIERMTGIWIQFATTGNPYSNEIEGMENVSWDPIKKSDEVYKCLNISDELKMIDVPEMDKIKQWESMFEKHRDLF

How the values were obtained:
[1] = cited from earlier work
[2] = Hydrolysis of Type II pyrethroid, chloroform-methanol extraction assay; format: biochemical; set-up: key: —: Not substantially different from values obtained using control cell extracts
Procedure: Since the TLC assay is more protracted than the chloroform-methanol extraction procedure, the latter (as described above for acid-labelled pyrethroids) was adopted to measure the 3-phenoxbenzoate anion produced from these substrates.
For all assays the molar amount of product formed was calculated from the known specific activity of the radiolabelled substrate. […] Assays at concentrations greater than 0.5 μM, which approximates the published aqueous solubility of permethrin, gave erratic results so precluding the measurement of Km and kcat. […] Assay conditions were therefore adjusted to measure the hydrolysis of the more-readily hydrolysed enantiomer in each pair. […] The same considerations about substrate solubility and proportionality of response to its concentration were assumed for all enzymes and substrates.
The specificity constant (ie kcat/Km) can therefore be calculated from the above equation using the initial hydrolysis rate (pmol/min, calculated from the known specific activity of the radiolabelled substrate) and the concentrations of substrate and enzyme in the assay. The diffusion-limited maximum value for a specificity constant is 10^8-10^9 M^−1sec^−1 (Stryer, 1981).

[3] = Esterase activity with α-naphthyl acetate; format: biochemical; settings: substrate α-naphthyl acetate; for Km: read-out: α-NA activity Km
[4] = Fluorometric determination of lipase activity; format: biochemical; settings: 4-MU-palmitate 10^−4M; ± standard error of duplicate assays
Excerpt: A fluorogenic assay was used to measure lipase activity of insect esterases or lipases, and mutants thereof. The fluorogenic substrate provides rapid reproducible methods for measuring enzymatic activity. Fatty acid esters (acylated) of 4-methylumbelliferone fluorophors are used as substrates for the identification of lipase activity. This assay uses the fluorophore 4-methylumbelliferyl palmitate (4-MU-palmitate) (structure provided below) and is a modification of the fluorometric esterase titration assay of Devonshire et al. (2002) and the method of Hamid et al. (1994) used for the rapid characterisation and identification of Mycobacteria. [drawing 4]
4-MU-palmitate is hydrolysed by a lipase to release the fluorescent 4-methylumbelliferone (4-MU), which can be measured by a fluorimeter.
A standard curve for 4-MU is prepared in each plate alongside the titrations. 25 μL 10^−2M dMU stock (19.8 mg/10 ml in 100% ethanol) was diluted with 2.475 ml (3×825 μl) ethanol to give a 10^−4M solution. This 10^−4M solution was used to prepare a standard curve from 0 to 1.0 μM in 0.1M phosphate buffer pH 7.0 (plus 0.05% or 0.5% ultrapure Triton X-100 (TX100) if present in cell extracts). This was done by dispensing 25 μl, 20 μl, 15 μl, 10 μl, 5 μl, 0 μl (plus ethanol to 25 μl) into tubes and adding 2.475 ml phosphate buffer (or phosphate buffer containing TX100 if required), then adding 100 μl per well. This gives 0.2, 0.4, 0.6, 0.8 and 1.0 uM in 0.25% TX100.
The samples were read on a Fluorostar fluorometer (BMG LabTechnologies) alongside the following titration reactions using the basic settings: excitation—355 nm, emission—460 nm, gain—zero, 10 cycles of 180 secs with shaking before each cycle.
For the assay, 20 μl of 5×10^−4 4-MU-palmitate (in 100% acetone) was to the wells that require substrate (II & III as defined in Table 4 below) and air dried. […] Cell extracts should be added immediately before readings start.
Corrected fluorescence (Fcorrected) was calculated by the following equations. […]

[5] = Permethrin hydrolysis, radiometric partition assay (acid-labelled substrate); format: biochemical; settings: sequential incubation of trans permethrin with E3WT and E4 from OP resistant aphid homogenates
Procedure: Expressed enzymes were tested for permethrin hydrolytic activity using a radiometric partition assay for acid-labelled compounds, or a TLC based assay for those labelled in the alcohol moiety (Devonshire and Moores, 1982). […] The power of the analyses was increased by separating permethrin into its cis and trans isomers.
Preparative thin layer chromatography (TLC) on silica was used to separate the isomers into two enantiomer pairs: 1S/1R cis and 1S/1R trans. […] Enzyme preparations could then be assayed for the hydrolysis of each enantiomer pair.
This assay (Devonshire and Moores, 1982) is used for permethrin isomers. It relies on incubating the expressed esterase with radiolabelled substrate and then measuring the radioactive cyclopropanecarboxylate anion in the aqueous phase after extracting the unchanged substrate into organic solvent. Based on previous experience, the best extraction protocol utilises a 2:1 (by volume) mixture of methanol and chloroform. […] Subsequent addition of an excess of chloroform and buffer exceeds the capacity of the methanol to hold the phases together, so that the organic phase can be removed and the product measured in the aqueous phase. […]

Molecule | published solubility in aqueous solution [1] [µM] | Specificity Constant (kcat/Km) 1R cis αR deltamethrin [2] | Specificity Constant (kcat/Km) 1R cis αS deltamethrin [2] | α-NA activity kcat [3] [s⁻¹] | Km [3] [µM] | 4-MU-palmitate activity [4] | enantiomer preference for trans permethrin [5] | Specificity Constant (kcat/Km) 1S cis αR deltamethrin [2] | Specificity Constant (kcat/Km) 1S cis αS deltamethrin [2]
CC1(C)C(C=C(Cl)Cl)C1C(=O)OCc1cccc(Oc2ccccc2)c1 (stereo not drawn) [permethrin] | 0.5 |  |  |  |  |  |  |  | 
B1 |  | — | — | 276 | 82 | 0.0677 ± 0.0032 moles 4MU produced per sec per mole of enzyme |  |  | 
B2 |  |  |  | 3 | 28 | 0.1051 ± 0.0033 moles 4MU produced per sec per mole of enzyme | preference for the 1S trans enantiomer |  | 
B3 |  | — | — | 248 | 71 | 0.0298 ± 0.0006^1 moles 4MU produced per sec per mole of enzyme | preference for the 1S trans enantiomer | —^1 | —
